Measurements taken from patent US20140329706A1 (CALIFORNIA INSTITUTE OF TECHNOLOGY, published 2014).

How the values were obtained:
[1] = target: T1, HaloTag-PDZ1+PDZ2 fusion protein (residues 61 to 249 of Mus musculus PSD-95) (Mus musculus, UniProt Q62108 61-249); assay: affinity chromatography on HaloTag-PDZ1+PDZ2 resin, SIESDV peptide elution, SDS-PAGE
T1 construct: range 61-249; also called PSD-95 PDZ1-PDZ2; not shown: HaloTag

[2] = target: T2, MBP (control, expressed alone without a PDZ domain) (UniProt P0AEX9 27-392 = MBP); assay: affinity chromatography on 2× nNOS PDZ-β-hairpin resin, SDS-PAGE
Experimental: (§1) Resuspended cells were incubated on a shaking platform at low speed for 20 minutes at room temperature before the lysate was clarified by centrifugation at 16,000×g for 30 min at 4° C. […] The mixtures were then subjected to centrifugation at 1000×g for 2 min, and the supernatant was removed by pipetting. […] The cap was removed and the resin washed with 20 column volumes of Purification Buffer.

[3] = target: T3, GST (control, expressed alone without a PDZ domain) (UniProt P08515 1-218 = GST); assay: affinity chromatography on … peptide resin, SDS-PAGE
T3 construct: also called Glutathione S-Transferase
Experimental: as §1

[4] = target: T2, MBP (control, expressed alone without a …); assay: as above
Experimental: as §1

[5] = target: T3, GST (control, expressed alone without a …); assay: affinity pull-down from clarified E. coli lysate on PSD-95 PDZ2 resin, wash, elution with free SIESDV peptide (400 ug/ml), SDS-PAGE with GelCode Blue
Experimental: as §1

[6] = target: T3, GST (control, expressed alone without a …); assay: affinity chromatography on 1× nNOS PDZ-β-hairpin resin, SDS-PAGE
Experimental: as §1

[7] = target: T2, MBP (control, expressed alone without a …); assay: as above
Experimental: as §1

T3 sequence (P08515 whole entry, the tested form may be a part): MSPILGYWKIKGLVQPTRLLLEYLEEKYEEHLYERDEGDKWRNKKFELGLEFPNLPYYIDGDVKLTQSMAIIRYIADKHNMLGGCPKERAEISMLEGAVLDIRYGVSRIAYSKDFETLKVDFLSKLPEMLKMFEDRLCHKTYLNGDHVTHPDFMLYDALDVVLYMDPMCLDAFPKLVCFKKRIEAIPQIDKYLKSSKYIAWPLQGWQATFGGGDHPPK

B1: cypin (guanine deaminase, Homo sapiens: AA 1-454) (other, UniProt Q9Y2T3 1-454, looked up)
chain: MCAAQMPPLAHIFRGTFVHSTWTCPMEVLRDHLLGVSDSGKIVFLEEASQQEKLAKEWCFKPCEIRELSHHEFFMPGLVDTHIHASQYSFAGSSIDLPLLEWLTKYTFPAEHRFQNIDFAEEVYTRVVRRTLKNGTTTACYFATIHTDSSLLLADITDKFGQRAFVGKVCMDLNDTFPEYKETTEESIKETERFVSEMLQKNYSRVKPIVTPRFSLSCSETLMGELGNIAKTRDLHIQSHISENRDEVEAVKNLYPSYKNYTSVYDKNNLLTNKTVMAHGCYLSAEELNVFHERGASIAHCPNSNLSLSSGFLNVLEVLKHEVKIGLGTDVAGGYSYSMLDAIRRAVMVSNILLINKVNEKSLTLKEVFRLATLGGSQALGLDGEIGNFEVGKEFDAILINPKASDSPIDLFYGDFFGDISEAVIQKFLYLGDDRNIEEVYVGGKQVVPFSSSV
notes: range 1-454; also called untagged cypin
binding result [1]: binds

B2: MBP-cypin (other, Homo sapiens, UniProt Q9Y2T3 1-454, looked up, not shown: large carriers)
chain: B1 chain
notes: range 1-454; also called cypin fused to an N-terminal MBP
binding result [1]: binds

B3: 2× nNOS PDZ domain fusion protein that contains a BH after each nNOS PDZ domain (other)
chain: QPNVISVRLFKRKVGGLGFLVKERVSKPPVIISDLIRGGAAEQSGLIQAGDIILAVNDRPLVDLSYDSALEVLRGIASETHVVLILRGPEGFTTHLETTFTGDGTPKTIRVTQPLGTPTQPNVISVRLFKRKVGGLGFLVKERVSKPPVIISDLIRGGAAEQSGLIQAGDIILAVNDRPLVDLSYDSALEVLRGIASETHVVLILRGPEGFTTHLETTFTGDGTPKTIRVTQPLGTPT
notes: domain: nNOS PDZ domain with β-Hairpin; also called nNOS-BH-nNOS-BH; 2× nNOS PDZ-β-hairpin domains
binding result [2]: no binding

GAGSSIESDV (also called GluN2B ligand-NHS-Agarose) [NR2B (GluN2B) peptide ligand GAGSSIESDV]
binding result [3]: no binding
binding result [4]: no binding

B4: PDZ2 domain of PSD-95 (other, UniProt Q62108 160-246, looked up)
chain: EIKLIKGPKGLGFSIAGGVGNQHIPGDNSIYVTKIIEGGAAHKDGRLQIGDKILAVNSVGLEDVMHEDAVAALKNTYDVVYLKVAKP
notes: domain: PDZ2; Species (Mus musculus) is stated only for the PDZ1+PDZ2 construct; also called PSD-95 PDZ2
binding result [5]: no binding

B5: nNOS PDZ domain (AA 11-129 of Mus musculus nNOS) (other, UniProt Q9Z0J4 11-129, looked up)
chain: IQPNVISVRLFKRKVGGLGFLVKERVSKPPVIISDLIRGGAAEQSGLIQAGDIILAVNDRPLVDLSYDSALEVLRGIASETHVVLILRGPEGFTTHLETTFTGDGTPKTIRVTQPLGTP
notes: range 11-129; also called 1× nNOS PDZ domain; 1× nNOS PDZ-β-hairpin domain
binding result [6]: no binding
binding result [7]: no binding
